T1: LATS1 PY12 (both PPxY motifs; aa 361-567) (UniProt O95835 361-567)
T1 construct: LATS1, region with both PPxY motifs, aa 361-567; cloned into pACYC; 15N-labelled in one of the NMR titrations; source: E. coli BL21 (DE3), purified
T1 sequence (looked up): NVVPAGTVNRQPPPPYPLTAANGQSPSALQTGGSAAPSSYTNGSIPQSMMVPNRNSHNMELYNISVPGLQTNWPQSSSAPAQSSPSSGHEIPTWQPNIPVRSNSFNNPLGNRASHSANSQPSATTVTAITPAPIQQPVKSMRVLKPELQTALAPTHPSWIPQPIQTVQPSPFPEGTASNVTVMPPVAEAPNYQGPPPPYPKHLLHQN

B1: YAP2 WW12 (both WW domains; aa 163-266) (domain or fragment, human, UniProt P46937-2 163-266, looked up)
chain: SSFEIPDDVPLPAGWEMAKTSSGQRYFLNHIDQTTTWQDPRKAMLSQMNVTAPTSPPVQQNMMNSASGPLPDGWEQAMTQDGEIYYINHKNKTTSWLDPRLDPR
notes: YES-associated protein, isoform YAP2 (YAP1-2), human, both WW domains, aa 163-266; cloned into pGEX-6P-1; 15N-labelled in one of the NMR titrations; source: also co-expressed with PY12 and co-purified
B2: LATS1 PPxY2 peptide mutant Q to A (peptide)
peptide: NYAGPPPPYPKH
notes: LATS1 PPxY2 peptide aa 551-562 with the Q at P1-3 changed to A; also called PPxY2m; PPxY2 Q→A; source: synthetic peptide, bought: GL BioChem
B3: LATS1 PPxY1 peptide mutant R to A (peptide)
peptide: NAQPPPPYPLTA
notes: also called PPxY1m; PPxY1R→A; source: synthetic peptide, bought: GL BioChem

Legend:
[1] = target: T1, LATS1 PY12 (both PPxY motifs; aa …); assay: ITC; WW12 vs PY12; 20 mM Tris-HCl pH 7.0, 100 mM NaCl, 3% glycerol, 2 mM DTT, 2 mM EDTA; single ligand binding site model; settings: both partners purified
[2] = target: T2, YAP2 WW1 domain (aa 163-206) (human, UniProt P46937-2 163-206); assay: ITC; protein 20 to 70 uM titrated against peptide 0.5 to 1.8 mM, 25°C, 20 mM Tris-HCl pH 7.0, 100 mM NaCl; single ligand binding site model; settings: both partners purified
T2 construct: YES-associated protein, isoform YAP2 (YAP1-2, two WW domains), human, first WW domain, aa 163-206; cloned into pGEX-6P-1

| Binder | Kd [1] | Kd [2] |
| --- | --- | --- |
| B1 | 9.6 µM | – |
| B2 | – | 4.4 µM |
| B3 | – | 14 µM |
